Measurements taken from article PMC12262051.

Biological target: JASPer protein (1-475) (Drosophila)
Assay: MST; label-free (Monolith NT.LabelFree); JASPer constant at 0.4 uM, reconstituted nucleosomes in a 16-step dilution series (0.5 nM up to 16 uM); 20 mM HEPES pH 7.5, 50 mM NaCl, 1 mM TCEP, 0.05% Tween 20; 24 C; fitted as specific binding with Hill slope

Row | Kd [nM] | Substance
1 | 320 | H3K36me2 mononucleosome (147 bp) (complex)
2 | 600 | H3K36me3 mononucleosome (147 bp) (complex)
3 | 4000 | unmodified mononucleosome (147 bp, H3K36me0) (complex)
